{"source": "patent US20180369373A1", "about": "(INNATE PHARMA, published 2018)", "binders": {"B1": {"name": "8E5B antibody (antibody, mouse IgG1, V domains shown)", "VH": "EIQLQQSGAELVKPGASVKLSCTASGFNIKDTYFHWVKQRPEQGLEWIGRIDPANGNTKYDPKFHDKATIIADISSNTAYLQFSSLTSEDTAVYYCAANRYGYWGQGTTLTVSS", "VL": "DIVMTQAAPSIPVTPGESVSISCRSSKSLLYINGNTHLFWFLQRPGQSPQLLIYRMSNLASGVPDRFSGSGSGTAFTLRISRVEAEDVGVYYCMQHLEYPFTFGSGTKLEIK", "notes": "Mouse monoclonal antibody; also called 8E5-B clone; monoclonal antibody 8E5B"}}, "biological_target": "T1, human NKp46 (isoform a), expressed on cells (human, UniProt O76036 22-304)", "T1 construct": "also called huNKp46; Raji-huNKp46 Low", "T1 sequence (O76036 22-304 Q82K limits assumed)": "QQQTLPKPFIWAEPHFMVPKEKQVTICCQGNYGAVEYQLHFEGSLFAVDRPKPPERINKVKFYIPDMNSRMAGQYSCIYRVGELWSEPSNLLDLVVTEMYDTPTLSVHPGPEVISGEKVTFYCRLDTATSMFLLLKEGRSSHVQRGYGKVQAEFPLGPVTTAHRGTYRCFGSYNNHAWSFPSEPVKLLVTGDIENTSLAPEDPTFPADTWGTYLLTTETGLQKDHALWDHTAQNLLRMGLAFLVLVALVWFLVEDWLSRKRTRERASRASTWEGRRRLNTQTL", "experiment": "IHC on FFPE cell pellets (Raji transfectants, SNK6) and human spleens, antibody at 5 and 10 pg/ml as printed", "data": [{"binder": "B1", "values": [{"measurement": "binding result", "value": "binds"}]}]}
